Assay results published in patent publication US20130224191A1, “NOTUM PROTEIN MODULATORS AND METHODS OF USE” (priority 2010, published 2013).

Molecular target: T1, chimeric human/mouse Notum (Homo sapiens, UniProt Q6P988, A205S/A256S/E196D/E289D/E487K/H276R/H373G/H396Y/K251E/L360Q/L418F/L429M/L483M/M474V/N299S/P379Q/P480Q/Q248L/Q311K/R218K/R307Q/R361W/S193P/T277S/T284N/V280I/V301M/V434F/V452I/Y171H)
T1 construct: human mature Notum protein (residues 19-144) fused to the mouse Notum (mouse residues 150-484); His tag; made in house
T1 sequence (Q6P988 with tags, fused parts or gaps Y171H/S193P/E196D/A205S/R218K/Q248L/K251E/A256S/H276R/T277S/V280I/T284N/E289D/N299S/V301M/R307Q/Q311K/L360Q/R361W/H373G/P379Q/H396Y/L418F/L429M/V434F/V452I/M474V/P480Q/L483M/E487K): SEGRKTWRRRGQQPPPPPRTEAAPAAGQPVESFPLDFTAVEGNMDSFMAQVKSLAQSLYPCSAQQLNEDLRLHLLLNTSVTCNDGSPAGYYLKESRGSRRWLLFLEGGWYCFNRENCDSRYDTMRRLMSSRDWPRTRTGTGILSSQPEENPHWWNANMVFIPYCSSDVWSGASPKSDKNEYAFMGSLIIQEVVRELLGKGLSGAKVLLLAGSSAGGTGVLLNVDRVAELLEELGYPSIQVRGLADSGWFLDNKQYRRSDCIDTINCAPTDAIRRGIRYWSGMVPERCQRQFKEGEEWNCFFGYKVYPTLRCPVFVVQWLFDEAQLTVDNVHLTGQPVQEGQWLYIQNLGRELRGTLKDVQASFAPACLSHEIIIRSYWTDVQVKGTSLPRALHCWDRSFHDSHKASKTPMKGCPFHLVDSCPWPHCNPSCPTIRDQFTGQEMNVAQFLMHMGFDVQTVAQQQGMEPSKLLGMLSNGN
Assay: Neutralization of chimeric Notum in 293.TCF assay
Type: cell-based
Excerpt: To better understand the structural basis for the interaction of SC2.D2.2 with human Notum, a chimeric Notum protein was fabricated. This approach takes advantage of the fact that the orthologs are structurally related. To that end a chimeric Notum molecule composed of the N terminal of the human mature Notum protein (residues 19-144) fused to the mouse Notum (mouse residues 150-484) (genes both consistent with Example 7) was generated and expressed in a similar manner to that set forth in previous Examples. The BamHI restriction cleavage site in human Notum gene was used for construction of in-frame fusion Notum chimeric protein. An expression vector was then constructed containing the His tagged chimeric Notum sequence.
The chimeric human/mouse Notum protein described in Example 17 was placed into the 293.TCF assay. […] (Note that FIG. 1C would annotate the residue as D129, based upon numbering from the start of the mature Notum protein, whereas the D141 annotation is based upon the consideration of the wild-type human protein precursor).

B1: SC2.D2.2 (antibody, V domains shown)
VH: DVQLVESGGGLVQPGGSRKISCAASGFTFSSYGMHWVRQAPEKGLEWVAYISSSTVTTYYADTVKGRFTISRDNANNTLFLQMTSLRSEDTAMYYCSRQNWDGGYFDVWGAGTTVTVSS
VL: DIVLTQSLASLAVSLGQRATISCRASKSVSSSGYSYMHWYQQKPGQPPKLLIYLASNLESGVPARFSGSGSGTDFTLNIHPVEEEDAATYYCQHSRALPLTFGAGTKLELKR
notes: also called murine SC2.D2.2
neutralization of chimeric Notum activity: can be neutralized
